# Source: PMC8926328
# Biological target: HBsAg-SpyCatcher VLPs (hepatitis B virus)
# Assay: SDS-PAGE of the covalent conjugate
substance,measurement,value
RBD-SpyTag (from UniProt P0DTC2) (domain or fragment),fraction unconjugated,< 20%
